# From publication PMC4114559, “Pigment Dispersing Factor Regulates Ecdysone Biosynthesis via Bombyx Neuropeptide G Protein Coupled Receptor-B2 in the Prothoracic Glands of Bombyx mori” (PLoS ONE, 2014)
# Legend:
# [1] = test system: nvd, nm-g, spo, phm, dib and sad; conditions: ref [8]; cited from earlier work
# From the text: Ecdysone is the key regulator of insect growth and development. Ecdysone is synthesized in the PGs and the biosynthesis is intricately regulated by several neuropeptides. To date, four prothoracicotropic peptides (PTTH, FXPRL-amides, insulin and orcokinins) and three prothoracicostatic peptides (PTSP, Bommo-myosuppressin and Bommo-FMRF-amides) have been identified in Bombyx mori. The participation of four cytochrome P450 (CYP) enzymes (CYP307A1, Spook (Spo); CYP306A1, Phantom (Phm); CYP302A1, Disembodied (Dib); CYP315A1, Shadow (Sad)); an oxygenase-like protein, Neverland (Nvd); and a sh ... || Because PDF increased the intracellular cAMP level in PGs, the involvement of PKA in the PDF signaling pathway was expected. […] In mammals, most of the CYP enzymes involved in steroid hormone biosynthesis are transcriptionally regulated. In PTTH- and dbcAMP-induced ecdysone biosynthesis, ecdysone biosynthesi ...
# 4E-BP = test: p-4E-BP level in cultured PGs (Western blot); format: cell-based, Bombyx mori; conditions: cultured PGs, 15 min; immunoblotting
# Protocol: Dissected PGs were rinsed with Grace's insect culture medium (Gibco) and pre-cultured individually in 100 µl medium in 96-well plates (BD Falcon) at 25°C for 30 min. To evaluate the effect of extracellular Ca^2+ on ecdysone biosynthesis, lepidopteran saline and lepidopteran saline using NaCl as a replacement for CaCl2 were used. For the pharmacological analysis, the PG was pre-treated with the inhibitor for 15 min during the pre-culture period. Following this treatment, the PG was cultured in the desired conditions for the desired period (Ecdysone assay: 3 hours; cAMP assay: 30 min; and Protein phosphorylation assay: 15 min). […]
# Dissected PGs were pre-cultured in Grace's culture medium for 30 min, then cultured with or without PDF or PTTH for 15 min. The cultured PGs were sonicated in 50 mM Tris-HCl (pH 6.8) with protease inhibitor cocktail (Complete, Roche) and phosphatase inhibitor cocktail (Wako), lysed in 1x SDS sample buffer excluding 2-mercaptoethanol (2ME) and bromophenol blue (BPB), and the protein concentration was measured using the BCA protein assay kit (Pierce). […]
# Figure 4 Signaling pathways involved in PDF-induced ecdysone biosynthesis. […] The transcript levels of nvd, nm-g, spo, phm, dib and sad were quantified with Q-PCR. […] Statistically significant differences were evaluated by Student's t-test (***P<0.001, **P<0.01). […]
# PGs = conditions: cited from earlier work
# From the text: In many cases, a single hormone has multiple functions regulating many physiological phenomena. Thus, both the regulation of receptor expression in the target tissue and the regulation of hormone release are important for the hormone to only affect the target tissue at the appropriate time. In the case of PTTH, the titer of the hormone in the hemolymph is clearly correlated with the ecdysteroid titer ... || In insects, neuropeptide hormones affect the target tissue via humoral and neuronal pathways. […] The increase in intracellular cAMP is thought to be regulated by Ca^2+ signaling in the PTTH signaling pathway, [37]. […] PDF sig ... || (+ 1 further places)
molecule,measurement,setting,value
"PTTH: prothoracicotropic hormone, humoral pathway-mediated tropic hormone (protein, UniProt P17219 116-224, looked up, Prothoracicotropic hormone) Prothoracicotropic hormone: GNIQVENQAIPDPPCTCKYKKEIEDLGENSVPRFIETRNCNKTQQPTCRPPYICKESLYSITILKRRETKSQESLEIPNELKYRWVAESHPVSVACLCTRDYQLRYNNN",transcript level of ecdysone biosynthetic enzymes (literature),[1],upregulated the transcript level of some ecdysone biosynthetic enzymes
same,"transcript levels of spo, dib and phm (literature)",[1],upregulated by PTTH
same,level of p-4E-BP,4E-BP,upregulated by both PDF and PTTH
same,"response of V4 PGs, ecdysone synthesis in vitro (literature)","PGs; PGs of V4, ref [8]",capable of responding to PTTH stimulus and synthesize ecdysone in vitro
same,ecdysone biosynthesis when extracellular Ca2+ is depleted (literature),"PGs; extracellular Ca2+ depleted, ref [27], [37]",cannot stimulate ecdysone biosynthesis when extracellular Ca^2+ is depleted
same,effect of a transcription inhibitor on PTTH- and dbcAMP-induced ecdysone biosynthesis (literature),PGs; ref [39],ecdysone biosynthesis was suppressed by a transcription inhibitor
